From patent publication US20250277767A1 come the findings set out here.

Assay [1] has as its target peptide #49 (cyclic EspB peptide, positions 193-207) (Enteropathogenic Escherichia coli (EPEC)). Nature of the assay: ELISA, plate coated with peptide #49, serially diluted mAb.
For assay [2], the target named is peptide #49+50 (combined sequences of peptides #49 and #50) (Enteropathogenic Escherichia coli (EPEC)). Nature of the assay: ELISA, plate coated with peptide #49+50, serially diluted mAb.
Assay [3] has as its target peptide #50 (cyclic EspB peptide, positions 197-211) (Enteropathogenic Escherichia coli (EPEC)). The assay is described as follows: ELISA, plate coated with peptide #50, serially diluted mAb.

Consider CTSAQKASQVAEEAADAAQEC (modifications not checked) [peptide #49+50 (combined sequences of peptides #49 and #50)], for which, in the assay with mAb-EspB-B7, the IC50 (read off the curve) was 2 µg/mL.

B1: mAb-EspB-B7 (antibody, V domains shown)
VH: EVQLLESGGGLVQPGGSLRLSCAASGFTFSHYAMNWVRQAPGKGLEWVSAINSNGDSTYYPDTVKDRFTISRDNSKNTLYLQMNSLRAEDTAVYYCARDRRAGYFDYWGQGTLVTVSS
VL: DIVLTQPPSASGTPGQRVTISCSGSRDNIGKNYVSWYQQLPGTAPKLLIYRNNQRPSGVPDRFSGSKSGTSASLAISGLRSEDEADYYCSAWDTSLNAYVFGPGTQLTVL
For the molecule B1, the results for the EC50 (read off the curve) in assay [1], in assay [2] and in assay [3] were 0.5 µg/mL, 0.3 µg/mL and 0.5 µg/mL, respectively.
